Data taken from the supplement of paper PMC9112550, “Optimization of the antimicrobial peptide Bac7 by deep mutational scanning” (BMC Biology, 2022).

Test system: Escherichia coli TOP10
Assay: shrunken log2 fold change of peptide-encoding DNA abundance (4.5 h post-induction vs induction); higher = less antimicrobial activity (less host growth inhibition)
Conditions: time post-induction: 4.5 h; library: site-saturation at positions 5, 18, 19, 20
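Also: peptides expressed intracellularly from a pBAD plasmid library in pooled LB shake-flask culture, induced with 0.3% L-arabinose, DNA abundance read by NGS, three biological replicates, DESeq2 with apeglm shrinkage.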

Sequence: RRIRQRPPRLPRPRPRPVYGPRP
- shrunken log2 fold change: -0.258

Sequence: RRIRPRPPRLPRPRPRPFFWPRP
- shrunken log2 fold change: 0.559

Sequence: RRIRGRPPRLPRPRPRPGMWPRP
- shrunken log2 fold change: 0.78

Sequence: RRIRHRPPRLPRPRPRPYALPRP
- shrunken log2 fold change: -0.078

Sequence: RRIRERPPRLPRPRPRPWTLPRP
- shrunken log2 fold change: -0.407

Sequence: RRIRWRPPRLPRPRPRPSKEPRP
- shrunken log2 fold change: -0.267

Sequence: RRIRWRPPRLPRPRPRPCEPPRP
- shrunken log2 fold change: -0.27

Sequence: RRIRIRPPRLPRPRPRPGHLPRP
- shrunken log2 fold change: -0.101

Sequence: RRIRPRPPRLPRPRPRPAIEPRP
- shrunken log2 fold change: -0.0623

Sequence: RRIRGRPPRLPRPRPRPDLEPRP
- shrunken log2 fold change: 0.288

Sequence: RRIRRRPPRLPRPRPRPYGQPRP
- shrunken log2 fold change: 0.501

Sequence: RRIRERPPRLPRPRPRPMMDPRP
- shrunken log2 fold change: -0.0298

Sequence: RRIRWRPPRLPRPRPRPHILPRP
- shrunken log2 fold change: -0.358

Sequence: RRIRPRPPRLPRPRPRPAKIPRP
- shrunken log2 fold change: 0.0125

Sequence: RRIRRRPPRLPRPRPRPQFIPRP
- shrunken log2 fold change: -0.387

Sequence: RRIRMRPPRLPRPRPRPPALPRP
- shrunken log2 fold change: 1.13

Sequence: RRIRARPPRLPRPRPRPRVFPRP
- shrunken log2 fold change: 0.704

Sequence: RRIRVRPPRLPRPRPRPNPLPRP
- shrunken log2 fold change: -0.167

Sequence: RRIRWRPPRLPRPRPRPRDDPRP
- shrunken log2 fold change: 0.341

Sequence: RRIRCRPPRLPRPRPRPYKVPRP
- shrunken log2 fold change: -1.05

Sequence: RRIRTRPPRLPRPRPRPITGPRP
- shrunken log2 fold change: 0.00283

Sequence: RRIRIRPPRLPRPRPRPIWCPRP
- shrunken log2 fold change: -0.00146

Sequence: RRIRMRPPRLPRPRPRPWQEPRP
- shrunken log2 fold change: -0.107

Sequence: RRIRRRPPRLPRPRPRPHCVPRP
- shrunken log2 fold change: -0.0665

Sequence: RRIRQRPPRLPRPRPRPSPGPRP
- shrunken log2 fold change: 0.194

Sequence: RRIRQRPPRLPRPRPRPEITPRP
- shrunken log2 fold change: 0.0276

Sequence: RRIRRRPPRLPRPRPRPDLFPRP
- shrunken log2 fold change: 0.41

Sequence: RRIRSRPPRLPRPRPRPGLMPRP
- shrunken log2 fold change: 0.197

Sequence: RRIRKRPPRLPRPRPRPEAVPRP
- shrunken log2 fold change: 0.15

Sequence: RRIRHRPPRLPRPRPRPMIEPRP
- shrunken log2 fold change: 0.0253

Sequence: RRIRFRPPRLPRPRPRPWIEPRP
- shrunken log2 fold change: -0.224

Sequence: RRIRSRPPRLPRPRPRPYFWPRP
- shrunken log2 fold change: -0.538

Sequence: RRIRMRPPRLPRPRPRPPFDPRP
- shrunken log2 fold change: 0.873

Sequence: RRIRPRPPRLPRPRPRPMWDPRP
- shrunken log2 fold change: -0.0234

Sequence: RRIRPRPPRLPRPRPRPDSAPRP
- shrunken log2 fold change: -0.18

Sequence: RRIRPRPPRLPRPRPRPTKEPRP
- shrunken log2 fold change: 0.193

Sequence: RRIRWRPPRLPRPRPRPQTIPRP
- shrunken log2 fold change: 0.106

Sequence: RRIRVRPPRLPRPRPRPKDCPRP
- shrunken log2 fold change: -0.107

Sequence: RRIRPRPPRLPRPRPRPMPGPRP
- shrunken log2 fold change: -0.0627

Sequence: RRIRKRPPRLPRPRPRPIEGPRP
- shrunken log2 fold change: -0.00926

Sequence: RRIRHRPPRLPRPRPRPDQRPRP
- shrunken log2 fold change: -0.00114

Sequence: RRIRHRPPRLPRPRPRPSCEPRP
- shrunken log2 fold change: -0.569

Sequence: RRIRNRPPRLPRPRPRPGSCPRP
- shrunken log2 fold change: -0.247

Sequence: RRIRWRPPRLPRPRPRPHQNPRP
- shrunken log2 fold change: -0.00311

Sequence: RRIRRRPPRLPRPRPRPRGTPRP
- shrunken log2 fold change: 0.216

Sequence: RRIRTRPPRLPRPRPRPTWMPRP
- shrunken log2 fold change: -0.0339

Sequence: RRIRMRPPRLPRPRPRPSAWPRP
- shrunken log2 fold change: 1.75

Sequence: RRIRCRPPRLPRPRPRPAMLPRP
- shrunken log2 fold change: 0.0443

Sequence: RRIRCRPPRLPRPRPRPHIPPRP
- shrunken log2 fold change: -0.245

Sequence: RRIRWRPPRLPRPRPRPSFKPRP
- shrunken log2 fold change: -0.226
